Results taken from a protein production outcome set (Wang et al. 2014).

assay: label from the status in PepcDB records
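Further: failed if final PepcDB status was selected cloned or expressed and not failed if soluble or beyond.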

Row | Sequence | protein production
1 | MSDDLMHEPDAAQAILPPGFLKNPVHLLAFGFGSGAAPRAPGTWGSLAAIPLWYAFSWLPPAAYWLVVLAAFLVGIWLCGKTAADLKVHDHGGIVWDEFVGMWIALGLFPDQLYGVLMAFMLFRLFDVWKPWPINWLDERLPGGLGIMVDDVVAGAMALGCLWAIDVWVMPYIV | failed
2 | MSDELSDRVAQYLRWQVSDKVALLAQRYPDDTSLTLDWTDLARWDPTLAEDILDAPDSMLEYVERGIRDTPLPVDTSLGQATPRFENLPESHTTAPGEFSPSDRRGQLLALEGQVAKRTQVQPRLVEAAFECQRCGTLTRIPFEPGQFIEPFECVGCETKGPFRINPDQSRYEDYQKLLLENPSSAALGGDTSDIIAHLQGDLAGHGAIANCQDVVLVGELQFRGGGPIPEPQVVVNSVQAAGQTYQDAEFTADQRDLFERLRERPESFDVDIEDPSTADVLMAAAAPKFVSGSHPRDRQVVRGLVLQLVSASTFDGPDGSHYRGDVHVLLPGDPGTGKSVLAKWAAAVAPRSAFASGERVSGPGLTAAAVKDDFSDGGFSIEPGVLVRAHEGIAVVDELDKAGDDAIEKMHSALADQILPLSLGGQSMTLPAECGLLGVCNPLGGHFAGDESLVDALGINSPLLSRFDLIMQMRSKQDREHVRELAESMIRTWSASLKDATGQALDTADADTIDPVLSMDQYRAVLLRARQLHPTPANDRVIEALAAWFEEQKMALPERYRDALADADGQYHGPPVPVTARKLGAARRVAQAAARANLREEITMADVEVAKELVSRSLADLDIPIVHNAGLGGGDVNRREPADLSGVS | failed
3 | MSDEQHDSVWPPPGLDFSKPTIARVYDALLGGKDNFEADRALADYACKHIPGLKESAIENRKVLVRGVRFLAGEAGISQFLDLGSGLPTVQNTHEVAQSVNPDARVVYVDIDPMVLTHGRALLAKDPNTAVFTADVRDPEYILNHPDVRRMIDFSRPAAIMLVGMLHYLSPDVVDRVVGAYRDALAPGSYLFMTSLVDTGLPAQQKLARITRENLGEGWARTPEEIERQFGDFELVEPGVVYTALWRPDEPVDPDNLSPGEQLGMAGIGRKKA | not failed
4 | MSDFGILSLLPPLVAIVLAIWTKRVVFALFSGVWIGGVMAANWNPITGTIKTFEWIIQNVTNSWNATILVFDFLIGAGVGLIYKSGGVHAVANAITKRIKTSRDASLLGWLLGVLIFFDDYTNTIIVGNTMRPITDKMRVSREMLAYIDDSTAAPVAGIAIVSTWIGYELGLIKEAFEKLHITMGEYYAWLHSVPYRFYSIFAIILVFIVAYTHRHYGAMLKAEMRARTTGKVVRDDAKPLMATESDLGLPLTEKGSVHFFIWPVLSLIIVTLLGLYYTGKAACEGPCGAMDILSNADSATSLLWGSFAMVAVALTLVLATKTMTVEETESAIIQGMKQMMMATVILVLAWSIKSATEAVGTAEYVVGLAQRANVPGGIIPLIIFLTAMFISFTTGTSWGTFGILMPIAIPLAYKLAPNDPQVLFASIGAVFAGGIFGDHCSPISDTTIMSSMFSGSDHIDHVTTQIPYAVTAASVGIVLYILFALGIKSPVILLPVGLVLLIAAWYFLSEWYGKKYGVPHGRVPIYPTEISE | failed
5 | MSDHPFSIQANLYLQLRHFIRLGMSKAEAIKLITYNNAKILGIEDKLGSLEKGKWASLVVWNGDPFNLENYPTHVFAEGELIHEANLLEHHHHHH | failed
6 | MSDISKLIGAIVGSDDPVIIEFVLNIINKSGNLQEFIRNIQKLDAGISYEDSIKMYNAFLGKQEEEKVRNKVKSSPLSQKINQVLKDDVNLDDPVVTEFVLSILNKSKSITEFQEQLNLMQSGLDNETIFKIYQIASPPVMKEEVSVLPSTKIPAKIEAKIEEEVQKIESLDPSPVLHKVYEGKVRNITTFGCFVQIFGTRMKNCDGLVHISEMSDQRTLDPHDVVRQGQHIFVEVIKIQNNGKISLSMKNIDQHSGEIRKRNTESVEDRGRSNDAHTSRNMKNKIKRRALTSPERWEIRQLIASGAASIDDYPELKDEIPINTSYLTAKRDDGSIVNGNTEKVDSKLEEQQRDETDEIDVELNTDDGPKFLKDQQVKGAKKYEMPKITKVPRGFMNRSAINGSNAIRDHREEKLRKKREIEQQIRKQQSFDDPTKNKKDSRNEIQMLKNQLIVTEWEKNRMNESISYGKRTSLPISAQRQTLPVYAMRSELIQAVRDNQFLVIVGETGSGKTTQITQYLDEEGFSNYGMIGCTQPRRVAAVSVAKRVAEEVGCKVGHDVGYTIRFEDVTGPDTRIKYMTDGMLQREALLDPEMSKYSVIMLDEAHERTVATDVLFALLKKAAIKRPELKVIVTSATLNSAKFSEYFLNCPIINIPGKTFPVEVLYSQTPQMDYIEAALDCVIDIHINEGPGDILVFLTGQEEIDSCCEILYDRVKTLGDSIGELLILPVYSALPSEIQSKIFEPTPKGSRKVVFATNIAETSITIDGIYYVVDPGFAKINIYNARAGIEQLIVSPISQAQANQRKGRAGRTGPGKCYRLYTESAFYNEMLENTVPEIQRQNLSHTILMLKAMGINDLLKFDFMDPPPKNLMLNALTELYHLQSLDDEGKLTNLGKEMSLFPMDPTLSRSLLSSVDNQCSDEIVTIISMLSVQNVFYRPKDRQLEADSKKAKFHHPYGDHLTLLNVYTRWQQANYSEQYCKTNFLHFRHLKRARDVKSQISMIFKKIGLKLISCHSDPDLIRKTFVSGFFMNAAKRDSQVGYKTINGGTEVGIHPSSSLYGKEYEYVMYHSIVLTSREYMSQVTSIEPQWLLEVAPHFYKAGDAESQSRKKAKIIPLHNKFAKDQNSWRLSSIRQSRERALGIKR | failed
7 | MSDKFNQFINRVLSHEGGYANHPKDPGGETNWGITKRTAQANGYNGSMRAMTREQAISIYRKAFWERYRADQMPEAVAFQFFDACVNHGYGNAARMLQRAAGVPDDGVIGAVSLKAINSLPENDLLLRFNAERLVFYTKLGTFTSFGKGWVRRVAQNLIHASADNTD | not failed
8 | MSDKLFSIVTISFNQAQFLREAVESVLAQKGGDIEYIVVDPGSTDGSREILAEYRSAIDHLILEADHGPGDGLNKGFARANGRYGYFLNSDDFLLPGAIDIMRTLWQRHKNTDVLLCGAWMVDENRRPQRELRPSPVTLEKLLDGEAKIVQQGMSFRMDLFRKVGGFNVGNRTCWDYELLCDFLAAGAAVTQSEARLAAFRIHSASISGGIGGELATKRYLADLDSVYERLTGQKKKPEQRRRAVRLSKRLGSPSHVLLRMRELLAPWTLELRWQADHERKSRRLEHHHHHH | failed
9 | MSDKPTIEQLLNNVSIESLNDMQEDSLAANAKASDVILLSPTGSGKTLGFLLPVFQQLSVSSNSIQALVLVPSRELALQIESVFKSLKTGFKVTCCYGGHPMDVEENNLAQSPALLIGTPGRIVDHINRRNINLDDVKTLVLDEFDKSLEMGFQEDMAIIIGRLTGIKKRILTSATQAIKIPDFTGMQSPVTLNYITGQASGLSVKTVLSDTKDKFDTLLRLLCQIGNESVIVFCNQRDEVENVCAYLTEHGIINNNFHGGLEQRYRESTLTKFRNGSTNVLVTTDLAARGLDIPDVKHVIHYQMPHKIDAFTHRNGRTARMGSTGNAYMLLHKDVLLPDYITSKPDILKLSDQKVKPLLPQWETLFISAGKKDKINKIDIVGFLSKKGLLEKDELGLIEVKDQFAYAAVKRNKVESVIKLVKEEKIKGRKVKIEVARETPKFEAE | failed
10 | MSDKQRVREQKHAWIYLFNLGFYILPMVLFPYQVWEIAVMVAALLVFIGLYYCCYSVPRQQMLWPILGMYIIACAVTPLNPGSIALFSYAGFFVGFAYNWRVALAAVAGIILTLATFHFGPGTSWDLFLPYGIVIVGTVSIFGRVERLRQQHAEEQERDAEEIERLATSVERERIARDLHDILGHTLSSIILKSDLAKAQLSKQRYDEASEQLVELSEIARESLSQVRQSVSGYKHGGLQLELRRLEQRLTDGGFSTRITGTPPIIDERRETSLVLAITELVTNIIRHSNGQQCLIHFDETANTYCIKVVDNGRCHDVSVGNGLSGVELRIQELGGSMSISTNKGCEVALFLPKLAEQQP | failed
11 | MSDKRDARFYQEVLDICLTAGRLMIEGGSEMYRVEDTMLRIARNADINDPRVFATPTCVFMSLDGGKLSQMKQIRDRNINLELVDRVNELSREFATKKIDLSELKNRIIEVANAPSFPMWMQIIGAAVLSATLMVLFMDDYDWVDFPGAALVGAIGFWAYYEFKKYTKVRFLSELIAAMIMGVLALGLNYLYPKMIIDNILIGALMTLVPGLAMTNALRDLFMGDLLSGIVRMCEAILSALALGGGVGLVLKFVGG | failed
12 | MSDLGDFADHGRDDDERGGDDDPAPADDDFDRPTLEATGSDDGLGALAVSEGLRIHEDGQETALKAYVTAGNRAAVRLGTYLVAPYPGGETLFCKITGLEYVQAFESDDATEIHARRAMRSDGVDEADYKFLAELDPVAVLSDEGDDITRRMPDRVPKPETVVRAADDAAEIKAGLKIPADGVFLGHLSVGGEKVRTAADPPTIDYRVKDGYEAGDPLVFRHTLIAGGTGSGKTHAAKNVLRQYLHEDRRYPVDSGGPERRMAVVQFDPQDEYAQMHDDNPDADASDRRQWETQGLAYGGHDDTVAFVPTVGSASYAADHHAAEQVAFTVPFSMVRDNPWLVASSGLNDNQYGALHLLLDRFFGQYGESGTYREFCAFLDDPALKEELDESGRVHEATYEAVLRRVNGMPNGLFDQDARSITALVEDREFVQPGRLSVVPTYHISNSRAAETVVLAVSSLLVDQKLSNDPRYDAIKRTPLLVGMDEAHNFLSDADSVQARKVVGKFTEAAKQGRKERLGLFLITQDPQDIAGPVFKQVNTTVVLNLGDEDAIQAVNIPATLQSKVPYMNTGQMVVYSPDNSEPVEVQGLATCVTRHGRD | failed
13 | MSDLINIQKKLLPDVLMIMQKRYQILRSIYFSEPVGRRTLAGMLGMSERVLRGEVEFLKAQGLVEIASSGMTVTKEGLVVFRDLENVMNQLSGLHSMEEQLAKKLQIKKCLVVQGDSDDTPWVREEMGRVAVEQLDMALTEKRNIVAVMGGSTMATVAEMMTTDFAKGRELLFVPGRGGIGEDLDNQANTICDKMATKTNTKHRVLYVPEQLGEEAYRSLLKEPAIQEGLRLVQSANAIILGIGDALAMAKRRHTGEDVLEKIIRRKAVGEAFGYYFDEQGEVVHKVPTFGLQFEDLAQIPHIIAVAGGTSKAKAIKSYMKSAPKNTILITDEGAAKSLLKGSNTLLK | failed
14 | MSDLQKLQRFSTCDISDGLLNVYNIPTGGYFPNLTAISPPQNSSIVGTAYTVLFAPIDDPRPAVNYIDSVPPNSILVLALEPHLQSQFHPFIKITQAMYGGLMSTRAQYLKSNGTVVFGRIRDVDEHRTLNHPVFAYGVGSCAPKAVVKAVGTNVQLKILTSDGVTQTICPGDYIAGDNNGIVRIPVQETDISKLVTYIEKSIEVDLLVSEDIKNGIPAKQAQNDRRSVLKKYI | not failed
15 | MSDQVPKPHRHHIWRITRRTLSKSWDDSIFSESAQAAFWSALSLPPLLLGMLGSLAYVAPLFGPDTLPAIEKSALSTAHSFFSPSVVNEIIEPTIGDITNNARGEVASLGFLISLWAGSSAISAFVDAVVEAHDQTPLRHPVRQRFFALFLYVVMLVFLVATAPVMVVGPRKVSEHIPESLANLLRYGYYPALILGLTVGVILLYRVALPVPLPTHRLVLGAVLAIAVFLIATLGLRVYLAWITRTGYTYGALATPIAFLLFAFFGGFAIMLGAELNAAVQEEWPAPATHAHRLGNWLKARIGVGTTTYSSTAQHSAVAAEPPS | failed
16 | MSDSIVGIPREDHQTFLYNPFTSQRYELPPLTIEDPHLKSVLRYGVLTGDPREDNTYACLVADSLHANLMAIGNTHPPSLHLYYVAKRNGEWDQNWSVTRIPTHNLPVVGSTIDSISPSADKISIIGWGHSFDFTFQSQDWNVTNINYTMEWNPFHGQSFDQIKHRLQIDPQTLDIIGTKTDRERVKNRIWFVINQIISHIDGVWVEVRA | failed
17 | MSDSKEITKVIVTMVVISAVAAALLALTYTPTQAQLKLLQAEQQKEAMKEILPQAADFEPVTGSEVDDDGNPVVLYYKGVDSSGNVVGYVVERNQVGAQGMIQLLAGISSDFSTITGFQVMKHSETPGLGALITTPEFQGQFVDLPVADTSLTKNGGQVDAISGATISSQAVVDALHSAVDYVSAQEG | failed
18 | MSDVIEGRLKELGFTLPVAAAPAANYVPFTISGNLLYVSGQLPMESGKIAVTGLVGRDVDVASAQRAAELCAVNILAQVKAALNGDLSKIRRVIKLNGFVASVPEFVEQHLVINGASNLIATVLGEPGRHARAAVGMASLPFNASVEIDAIVEIDV | not failed
